The values below are quoted from earlier work in PMC11695704.

The target of this data set is Clr-b (Mus musculus) (UniProt Q91V08).
UniProt Q91V08, sequence (Q91V08 whole entry): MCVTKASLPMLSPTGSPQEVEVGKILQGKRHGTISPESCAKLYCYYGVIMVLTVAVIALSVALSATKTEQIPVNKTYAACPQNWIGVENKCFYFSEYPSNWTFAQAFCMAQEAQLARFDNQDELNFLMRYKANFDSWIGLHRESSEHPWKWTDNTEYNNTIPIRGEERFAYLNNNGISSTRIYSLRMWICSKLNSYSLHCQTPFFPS

Turning to NKR-P1B (from UniProt P27812), the Kd is more than 500 µM.

Broadly, the Kd is the equilibrium constant for the complex coming apart.
